Results taken from IntAct's records for PubMed 11743162.

B1: High osmolarity signaling protein SHO1 (Saccharomyces cerevisiae), P40073 (parent)
chain: MSISSKIRPTPRKPSRMATDHSFKMKKFYADPFAISSISLAIVSWVIAIGGSISSASTNESFPRFTWWGIVYQFLIICSLMLFYCFDLVDHYRIFITTSIAVAFVYNTNSATNLVYADGPKKAAASAGVILLSIINLIWILYYGGDNASPTNRWIDSFSIKGIRPSPLENSLHRARRRGNRNTTPYQNNVYNDAIRDSGYATQFDGYPQQQPSHTNYVSSTALAGFENTQPNTSEAVNLHLNTLQQRINSASNAKETNDNSNNQTNTNIGNTFDTDFSNGNTETTMGDTLGLYSDIGDDNFIYKAKALYPYDADDDDAYEISFEQNEILQVSDIEGRWWKARRANGETGIIPSNYVQLIDGPEEMHR
B2: Protein BZZ1 (Saccharomyces cerevisiae), P38822 (parent)
chain: MSADLSIGNEIKDSFKETHKWVQNNLKWLKDIEQFYRERAKLEKDYSERLSRLSAEYFNKKSSTSVPISVGDTPTTTPGSIEAAGVVAWNEILSQTDMISKDHDQLSTDFENHVANQLSGLFTKLDMTLSKINGFNNDMVNKKDNIYHELEKAKKDYDEACSTMEMARNRYTKASNDRNKKKLDEKEMEMNKCKNEYLIKINQANRTKDKYYFQDVPEVLDLLQDVNEAKTLFLNDLWLKAASVENDLGANVSKRLQAANSVVKQNKPSLNTAIFIKHNLKNWKEPQDFVYKPSPVWHDDEKFAVPSSLEVEDLRIKLAKAENDYNSLQDKTQNELSKLSTLNKIKHEMKTNEDNINATKFYDTLKEYLNVVSPFTSHETLKLQAEVQIESIQNNVPEEYDLSTDNIDLSKTKKKSGIFSKFKHNILNVDSKPSSGGSTGNGNGGPLHITSLFNTSRRTRLGSAPNNAGEDSDNNSIRTTSTNNTKKTTQNSSDDGKNKVLYAYVQKDDDEITITPGDKISLVARDTGSGWTKINNDTTGETGLVPTTYIRISSAATVKANDRGPAPEVPPPRRSTLPVRTMEAIYAYEAQGDDEISIDPGDIITVIRGDDGSGWTYGECDGLKGLFPTSYCK
B3: Protein BZZ1 (Saccharomyces cerevisiae), P38822 (parent)
chain: B2 chain
partner: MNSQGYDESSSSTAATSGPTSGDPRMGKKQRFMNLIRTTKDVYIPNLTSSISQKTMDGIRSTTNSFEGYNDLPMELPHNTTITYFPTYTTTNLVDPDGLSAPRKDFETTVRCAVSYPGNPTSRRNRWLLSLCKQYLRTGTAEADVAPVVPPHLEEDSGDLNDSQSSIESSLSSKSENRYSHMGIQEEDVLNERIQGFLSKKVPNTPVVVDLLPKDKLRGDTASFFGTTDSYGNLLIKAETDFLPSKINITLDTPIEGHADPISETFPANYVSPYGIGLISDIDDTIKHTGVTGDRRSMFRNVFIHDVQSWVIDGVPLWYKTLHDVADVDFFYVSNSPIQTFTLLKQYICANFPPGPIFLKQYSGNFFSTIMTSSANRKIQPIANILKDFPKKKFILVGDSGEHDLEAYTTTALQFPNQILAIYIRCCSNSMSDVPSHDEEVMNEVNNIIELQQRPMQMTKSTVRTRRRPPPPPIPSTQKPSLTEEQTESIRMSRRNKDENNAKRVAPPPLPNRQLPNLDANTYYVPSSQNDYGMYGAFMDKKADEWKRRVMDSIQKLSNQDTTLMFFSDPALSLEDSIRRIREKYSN

Variants of: B1
Settings: with las17_yeast LAS17, Q12446
Target sequence in this assay (Q12446 whole entry): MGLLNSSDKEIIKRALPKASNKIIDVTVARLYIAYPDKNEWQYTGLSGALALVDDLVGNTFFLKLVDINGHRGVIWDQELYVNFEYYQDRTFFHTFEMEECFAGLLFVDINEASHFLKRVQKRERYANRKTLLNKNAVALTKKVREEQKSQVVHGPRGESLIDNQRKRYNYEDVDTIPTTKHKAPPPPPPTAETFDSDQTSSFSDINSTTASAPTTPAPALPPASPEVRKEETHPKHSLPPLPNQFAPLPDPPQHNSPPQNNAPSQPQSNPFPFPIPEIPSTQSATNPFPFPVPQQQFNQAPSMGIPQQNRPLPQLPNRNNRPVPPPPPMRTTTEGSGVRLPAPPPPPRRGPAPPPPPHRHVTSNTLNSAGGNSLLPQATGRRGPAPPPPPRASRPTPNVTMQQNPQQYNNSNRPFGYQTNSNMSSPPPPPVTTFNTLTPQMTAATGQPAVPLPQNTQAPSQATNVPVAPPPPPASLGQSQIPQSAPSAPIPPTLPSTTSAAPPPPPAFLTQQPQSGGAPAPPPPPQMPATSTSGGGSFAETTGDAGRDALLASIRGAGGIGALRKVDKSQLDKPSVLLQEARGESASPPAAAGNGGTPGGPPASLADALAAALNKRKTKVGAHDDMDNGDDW
P352A was tested, and the “effect of a mutation on the interaction” value was “decreasing interaction”.

Variants of: B2
Settings: with las17_yeast LAS17, Q12446
Target sequence in this assay (Q12446 whole entry): as above
For W531S, the “effect of a mutation on the interaction” value was “decreasing interaction”.
In the case of W531S;W615S, the “effect of a mutation on the interaction” value is reported as “decreasing interaction”.
For W615S, the “effect of a mutation on the interaction” value was “decreasing interaction”.

Variants of: B3
Settings: with app1_yeast APP1, P53933
With W531S;W615S the “effect of a mutation on the interaction” value was “decreasing interaction”.
